Tests used:
[1] = target: death receptor (DR) on the plasma membrane of MDA-MB-231 cells; assay: cell-based or functional assay
[2] = target: death receptor (DR) on the plasma membrane of MDA-MB-231 cells; assay: fluorescence of cell-associated r-TRAIL on MDA-MB-231 cells, 4 C (membrane only) against 37 C (membrane plus internalised), r-TRAIL-Gelipo 0.2 ug/mL after HAase treatment

| Substance | apoptosis ratio, Annexin V-FITC/PI flow cytometry, MDA-MB-231 cells, 12 h, free TRAIL 2 ng/mL [1] | apoptosis ratio, Annexin V-FITC/PI flow cytometry, MDA-MB-231 cells, 12 h, free TRAIL 20 ng/mL [1] | viability, Annexin V-FITC/PI flow cytometry, MDA-MB-231 cells, 12 h, free TRAIL 20 ng/mL [1] | percent of r-TRAIL bound onto the membrane [2] |
| --- | --- | --- | --- | --- |
| His-ILZ-TRAIL (residues 114-281) (from UniProt P50591 114-281) (ligand) | 36.5% | 51.7% | 32.3% |  |
| rhodamine-labeled TRAIL (His-ILZ-TRAIL, residues 114-281, labelled with rhodamine NHS ester) (from UniProt P50591 114-281) (ligand) |  |  |  | 80% |

From patent US20160263137A1
